Test results published in the supplement of paper PMC9170038.

System: MS2 coat protein
Experiment: apparent KD of MS2 coat protein; designed switch direction (-1 OFF switch, 1 ON switch): 1; higher = weaker reporter binding
Summary of the method: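 Designed RNA switches were transcribed on Illumina chips by stalled E. coli RNA polymerase and titrated with SNAP-549-labelled MS2 coat protein from 0.7 or 1.5 nM, doubling to 3 µM. Step length ran from 0.8–1.5 h at the lowest concentration to 10–20 min at the highest. The apparent KD is the median over clusters for each design, from curve-fitted normalised cluster fluorescence.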

[1] = input ligand: microRNA oligo, concentration not stated
[2] = Eterna round: R95, input ligand: FMN 200 uM
[3] = Eterna round: R95, input ligand: microRNA oligo, concentration not stated
[4] = Eterna round: R95, input ligand: none

Sequence	apparent KD of MS2 coat protein (input ligand: FMN 200 uM) [nM]	apparent KD of MS2 coat protein [1] [nM]	apparent KD of MS2 coat protein (input ligand: none) [nM]	apparent KD of MS2 coat protein [2] [nM]	apparent KD of MS2 coat protein [3] [nM]	apparent KD of MS2 coat protein [4] [nM]
GCCGCGUUUCGCGCCUACAUGAGGAUCACCCAUGUUUGUAGGCAGGAUAUCGUCCGCUCUGCGGGCGAGAAGGGCUGUUGUGGG [salish99_SSNG3_R04_023] (Eterna round: R96, puzzle: Same State NG 3)	214	139	179			
UCAAGCGAGAGGCUCGUCUUAUGCAAGGAACAUGAGGAUCACCCAUGUGAGGGACGAUUGAGUUAGAUGGAAUGGAG [JR_SHM208A_Sub032] (puzzle: Sensor for hsa-mir-208a)				29.9	136	33.5
CGAGGCGUACAUGAGGAUCACCCAUGUACCUAACAACAAAGCAAGGAUAUCCUGGCUAUAAUACAGGAGAAGGUGUGGUCCUUA [Eternabot solution 15] (Eterna round: R96, puzzle: Same State NG 3)		107				
GGGCCAGCUUGUGCUGGGCCUUCGCAUGCACAUGAGGAUCACCCAUGUCGUGUACAUGCUUGGUGCCCGUCUUUAAA [Photon Torp-13] (puzzle: Sensor for hsa-mir-208a)				102	13.9	103
AGUCCAGCCAGAGCUGGACAAAAGCAUGUACAUGAGGAUCACCCAUGUUCAUGUACAAGCUUUUUGCUCGUCUUAAA [Mat - hsa-mir-208a - Mod of JL - 55] (puzzle: Sensor for hsa-mir-208a)				545	15	
GGUGCUGUCACAGGAUAUCAUGCGGAAAUCGCGUGAGAAGGGUGGACUCUGUCAUUCACGGAGGACAUGAGGAUCACCCAUGUG [SS NG10LRO20] (Eterna round: R96, puzzle: Same State NG 1)	68.5	5.67	20.2			
UUAAUGAUGUAAGGAUAUACAUGAGGAUUUCUCGUAGAAGGUACAGGACAUGAGGAUCACCCAUGUGUCGCUCCGUAGAGCGUA [JL SSNG1 1.08] (Eterna round: R96, puzzle: Same State NG 1)	349	414	525			
GGAAGGAGGUCAGGAUAUGGAUGGAAGGUACAUGAGGAUCACCCAUGUUACGGAGGAAGGAAACGUUAGAAGGGAUAAGGAAGG [AK SSNG2-V2-2.1] (Eterna round: R96, puzzle: Same State NG 2)	34.7	24.9	31.8			
GCUACAUGAGGAUCACCCAUGUGUGCGUGGGAGUGAGUGGCUUAGGAUAUCUAUGACUUUAGUUGAGAGAAGGAGGAUUGCUGU [SS-NG3-LRO11] (Eterna round: R96, puzzle: Same State NG 3)	190	105	173			
GAAAGCAACGGAGGAUAUUCGCGUACGUUGGACGAAGAAGGCCGACAUGAGGAUCACCCAUGUACGAAUCACGCCAUAGCAUUA [Eternabot solution 12] (Eterna round: R96, puzzle: Same State NG 1)	23.9	16.4	19.7			
AAAAAACAUGAGGAUCACCCAUGUCAAAAGACAUGAGGAUAUGUACAGACUUCGGUCUGUACAGAAGGCAUGAAAA [SS1 - 1011] (Eterna round: R96, puzzle: Same State 1)		359				
GCGGAGAGGUCAGGAUAUCCAUGGAAGACACAUGAGGAUCACCCAUGUGGGAGGGAAACCAGGAGGGAGAAGGGACCGGGACGC [ssng2 v2 c] (Eterna round: R96, puzzle: Same State NG 2)	11.4	10.3	13.3			
AGUCCAGCGAAAGCUGGACAAAGGCAUGUACAUGAGGAUCACCCAUGUUCAUGUACAAGCUUUUUGCUCGUCUUAAA [JL mod - D95 - 3] (puzzle: Sensor for hsa-mir-208a)				147	14	194
GAGUAGUUGAAAGGAUAUGCAUUGUUAUAGAAUGCAGAAGGUUCUAACAUGAGGAUCACCCAUGUAGGACUAUUCCUGUGUAUC [Parity 80 - Jieux - Same State NG 1] (Eterna round: R96, puzzle: Same State NG 1)		7.83				
GGUCGGACUCACAUGAGGAUCACCCAUGUUGCGGAAACGCAGCAGGAUAUCUGUCCGAAAAGGUCAGAGAAGGGCUAACCGACC [Fiskers NG3ss - 57] (Eterna round: R96, puzzle: Same State NG 3)	197	596	1310			
AUAAAACAUGAGGAUCACCCAUGUCAACAAAAUCGAGGAUAUGGACAGACUUCGGUCUGUCCAGAAGGCGAAUAAU [salish99_ss1_r3_100] (puzzle: Same State 1)					13.8	

Sequence	apparent KD of MS2 coat protein (input ligand: FMN 200 uM) [nM]	apparent KD of MS2 coat protein [1] [nM]	apparent KD of MS2 coat protein (input ligand: none) [nM]	apparent KD of MS2 coat protein [2] [nM]	apparent KD of MS2 coat protein [3] [nM]	apparent KD of MS2 coat protein [4] [nM]
AUUAUUAAUGCAGGAUAUGAUUAACAUGAGGAUCACCCAUGUGGUGUUGUGAGUAAGGAGAGUGAUCAGAAGGGCAUUUUUAUU [JMF's solution 13] (Eterna round: R96, puzzle: Same State NG 2)	1020	353	808			
GUUACAUGAGGAUCACCCAUGUAUGUGUGGGAGUAAGUGUCUUAGGAUAUCUAUUAUUUGAAUUAAGAGAAGGAAGAUUGUUGU [JMF's solution 21] (Eterna round: R96, puzzle: Same State NG 3)	128	69.8	103			
UGGUACAUGGGAGGAUAUCAUGUAGAGACAUGAGGAUCACCCAUGUAGAUGGCCGGUAACCGGGAUGAGAAGGCCCAUGUACCU [JL SSNG1 3.65] (Eterna round: R96, puzzle: Same State NG 2)	161	56.3	151			
ACCCAAAGUAUAUGGGAACAAGCUUUUUAACAUGAGGAUCACCCAUGUACUCGUCUUAUAAGCAGUCGAAAGACUGC [hsa-mir-208a sensor: 100] (Eterna round: R96, puzzle: Sensor for hsa-mir-208a)	557	14.3	877			
AUUAUUUGUGCAGGAUAUGAUUAACAUGAGGAUCACCCAUGUGGUGUUGUGAGUAAGGAGAGUGAUCAGAAGGGCAUUUUUUUU [JMF's solution 61] (Eterna round: R96, puzzle: Same State NG 2)	590	476	478			
UGCAUACAUGAGGAUCACCCAUGUCUACGAUGUCGAGGAUAUGGAUUGCCGUGAGGCGUGCCAGAAGGCGAAGUGG [Same State 1 - Mod of Vinnie Teenbexe v.2] (puzzle: Same State 1)				26.2	33.7	30.1
UUGAAUAAUUAAGGAUAUCGAGUACAUAUGUUAAACAUGAGGAUCACCCAUGUGGGUUGCGGUAUCGAGAAGGUAAAAGAAAAG [Mat - Same State NG 2 - JL mod - D60] (Eterna round: R96, puzzle: Same State NG 2)	32.6	21.9	35.8			
GUAGCAUACCGAGGAUAUUCAUAUAAUAAAUAACAUGAGGAUCACCCAUGUAGGCGAAAGCCUUGGGAGAAGGCGGAAUGCUAC [Xeonanis - 20 Mod57] (Eterna round: R96, puzzle: Same State NG 2)	13.5	108	112			
GCUCGCACGAUGACCGACAUGAGGAUCACCCAUGUGUGUCGGUAGGAUAUCUAUAUUAAGGAUUUAGAGAAGGGCCGAGCGAGC [SameState NG3 #21] (Eterna round: R96, puzzle: Same State NG 3)	57.1	104	117			
UGUUGUAUUACAGGAUAUCUAUUAUUUGUAUUUAGAGAAGGGUAUUCACAUGAGGAUCACCCAUGUAUAUACGAGGAAGUUGUG [JMF's solution 20] (Eterna round: R96, puzzle: Same State NG 1)		42.4				
UUUAUAUUCAGAGGAUAUUGAUGUUGUAUUUUACAAGAAGGCUGUUUGUUUUGUAAUGUUAUUAUACAUGAGGAUCACCCAUGU [JR_SSNG1_Sub015] (Eterna round: R96, puzzle: Same State NG 1)		16.8				
UGUACAUGAGGAUCACCCAUGUCUAGACAUGUUAAUAUAAUGUAGGAUAUAUAAAAUUUAAAUUAAUAGAAGGACAAUUUUUUU [JMF's solution 2] (Eterna round: R96, puzzle: Same State NG 3)	113	155	212			
AUAUUCUUCCGCGACACCCACAUGAGGAUCACCCAUGUUGAACAGGAUAUGUAGUUCAUCUGAACACAGAAGGGUUAAAGGAAG [Eternabot solution 28] (Eterna round: R96, puzzle: Same State NG 3)	16.5	16.5	20			
UUAAAACAUGAGGAUCACCCAUGUAAUAAUAUGGGAGGAUAUCAGAAUGUAUGUAUGUAAUGAGAAGGCCUAAAUG [Mat - Same State 1 - Mod of Eli - D77] (puzzle: Same State 1)				70.4	156	398
AAAAGACAUGAGGAUCACCCAUGUAAAAACAUAGGAGGAUAUGUCAUGAAAAAAGACUUGACAGAAGGCCUUUGUC [SS1 - 49] (Eterna round: R96, puzzle: Same State 1)		156				
